According to paper doi:10.1101/2021.08.02.454546 (2021):

Target: CV3–25 IgG
Assay: SPR

CV3–25 IgG, sequence (VH, as listed by the source, chain 1 of 2): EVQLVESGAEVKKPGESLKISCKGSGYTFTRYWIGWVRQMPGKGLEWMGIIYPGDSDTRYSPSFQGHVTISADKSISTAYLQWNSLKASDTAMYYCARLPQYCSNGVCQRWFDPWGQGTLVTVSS
CV3–25 IgG, sequence (VL, as listed by the source, chain 2 of 2): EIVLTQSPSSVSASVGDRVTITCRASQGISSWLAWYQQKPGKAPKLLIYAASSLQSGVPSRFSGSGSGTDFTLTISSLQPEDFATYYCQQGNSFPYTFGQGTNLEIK

DKYFKNHTSPDVDLG [SARS-CoV-2 S2 peptide #289 (1153-DKYFKNHTSPDVDLG-1167)] showed a koff of 0.0319 s⁻¹.

With DKYFKNHTSPD [shorter version of peptide #289 (1153-DKYFKNHTSPD-1163)] the koff was 0.0761 s⁻¹.
